Experiment: yeast display, Sf9 membrane polyspecificity reagent, FACS + sequencing; frameworks hold sequencing errors
Outline: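 Genes from sorted yeast were amplified by colony PCR, read by MiSeq 2 × 250 sequencing and filtered on CDR length. These cells carried a synthetic nanobody library in Saccharomyces cerevisiae BJ5465 and were sorted by FACS into low and high (top ~1%) gates on anti-HA and streptavidin fluorescence. Polyreactivity is labelled according to the gate of origin.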
In the case of “QVQLVESGGGLVQAGGSLRLSCAASGRISPNNAMGWYRQAPGKERELVAAITASGGTTYYADSVKGRFTISRDNAKNTVYLQMNSLKPEDTAVYYCAAAVWYRGWYRYDYWGQGTQVTVSS”, the “polyreactivity (PSR sort gate)” value is reported as “low polyreactivity”.
For “QVQLVESGGGLVQAGGSLRLSCAASGRISPVYAMGWYRQAPGKERELVAAITSGGSTNYADSVKGRFTISRDNAQNTVYLQMNSLKPEDTAVYYCAVEGFSSAAYDFEYWGQGTQVTVSS”, the “polyreactivity (PSR sort gate)” value was “high polyreactivity”.
With “QVQLVESGGGLVQAGGSLRLSCAASGRISRLYAMGWYRPAPGKERELVAAITDSGGSTYYADSVKGRFTISRDTAKNTVYLQMNSLKPEDTAVYYCAATWSNWYREYYYWGQGTQVTVSS” the “polyreactivity (PSR sort gate)” value was “high polyreactivity”.
With “QVQLVESGGGLVQAGGSLRLSCAASGRISRRNAMGWYRQAPGKEREFVATITSSGGCTYYADSVKGRFTISRDNAKNTVYLQMNSLKPEDTAVYYCAARVRGRYTEDYWGQGTQVTVSS” the “polyreactivity (PSR sort gate)” value was “high polyreactivity”.
For “QVQLVESGGGLVQAGGSLRLSCAASGRISSANAMGWYRPAPGKERELVAAITWSGGSTYYADSVKGRFTISRDNAKNTVYIQMNSMKQEDTAVYYCAAESSAYGGGTSDAGYESDYWGQGTQVTVSS”, the “polyreactivity (PSR sort gate)” value was “low polyreactivity”.
In the case of “QVQLVESGGGLVQAGGSLRLSCAASGRISSIYAMGCYRQAPGKERELVATISVRTTGTYYADSVKGRFTISRDNAKNTVYLQMNSLKPEDTAVYYCAAAKRRGYYVKYDYWGQGTQVTVSS”, the “polyreactivity (PSR sort gate)” value is reported as “high polyreactivity”.
With “QVQLVESGGGLVQAGGSLRLSCAASGRISVRNAMGWYRQAPGKERELVATIRSGGSTNYADSVKGRFTISRDNAKNTVYLQMYSLKPEDTAVYYCATAKLTWRSQGLDYWGQGTQVTVSS” the “polyreactivity (PSR sort gate)” value was “low polyreactivity”.
For “QVQLVESGGGLVQAGGSLRLSCAASGRISYGNGMGWYIQAPGKERELVAAISWSTTRTYYADSVKGRFTISRDYAKNTVYLQMNSLKPEDTAVYYCNAAGRPYDFSGGRTMEYWGQGTQVTVSS”, the “polyreactivity (PSR sort gate)” value was “high polyreactivity”.
In the case of “QVQLVESGGGLVQAGGSLRLSCAASGRISYYAMGWYRQAPGKERELVAVISSRGGSTYYADSVKGRFTISRDNAKNTVYLQMNSLKPEDTAVYYCAADLYYDAWRLYVLGYATMDYWGQGTQVTVSS”, the “polyreactivity (PSR sort gate)” value is reported as “high polyreactivity”.
In the case of “QVQLVESGGGLVQAGGSLRLSCAASGRITFRNAMVWYRQAPGKERELVASITSGGSTYYADSVKGRFTISRDNAKNTVYLQMNSLKPEDTAVYYCAGEGTARTSPPMDYWGQGTQVTVSS”, the “polyreactivity (PSR sort gate)” value is reported as “high polyreactivity”.
In the case of “QVQLVESGGGLVQAGGSLRLSCAASGRITFSHNTMGWYRQAPGKERELVAAISSGGRTNYADSVKGRFTISRDNAKNTVYLQMNSLKPEDTGVYYCARESHYDFIYDGMDYWGQGTQVTVSS”, the “polyreactivity (PSR sort gate)” value is reported as “low polyreactivity”.
In the case of “QVQLVESGGGLVQAGGSLRLSCAASGRIVGWYAMGWYRQAPGKERELVAGINYGGGRTYYADSVKGRFTISRDNAKNTVYLQMNSLKPEDTAVYYCAAGISGHYYWGQGTQVTVSS”, the “polyreactivity (PSR sort gate)” value is reported as “high polyreactivity”.
With “QVQLVESGGGLVQAGGSLRLSCAASGRIVKRNAMGWYRHAPGKERELVAAISYSGGSTYYADSVKGRFTISRDNAKNTVYLEMMSLKPEDTAVYYCAVDRYPTGITKYDYWGQGTQVTVSS” the “polyreactivity (PSR sort gate)” value was “high polyreactivity”.
In the case of “QVQLVESGGGLVQAGGSLRLSCAASGRIVKYAMGWYRQAPGKERELVAAITSGGSTTYADSVKGRFTISRDNAKNTVYLQMNSLKPEDTAVYYCKALRRARYTRKGYEYWGQGTQVTVSS”, the “polyreactivity (PSR sort gate)” value is reported as “high polyreactivity”.
With “QVQLVESGGGLVQAGGSLRLSCAASGRIVSGYVMGWYRQAPGKERELVAVISRSGGSTYYADSVKGRFTISRDNAKNTVYLQMNSLKPEDTAVYYCDAKHIDGSRGYDYWGQGTQVTVSS” the “polyreactivity (PSR sort gate)” value was “low polyreactivity”.
In the case of “QVQLVESGGGLVQAGGSLRLSCAASGRIVTAYAMGWYRPAPGKEREFVAAISSSGGSTYADSVKGRFTISRDNAKNTVYLQINSLKPEDTAVYYCAARYGFYWFPGYYYWGQGTQVTVSS”, the “polyreactivity (PSR sort gate)” value is reported as “low polyreactivity”.
With “QVQLVESGGGLVQAGGSLRLSCAASGRIVWSYGMGWYRQAPGKERELVAAITNTGDGTYYADSVKGRFTISRDNAKNTVYLQMNSLKPEDTAVYYCAVDYRGYWYWEYDYWGQGTQVTVSS” the “polyreactivity (PSR sort gate)” value was “high polyreactivity”.
With “QVQLVESGGGLVQAGGSLRLSCAASGRIWVNAMAWYRQAPRKEMEFVAAISTSSASTYYADSVKGRFTISRDNAKNTVYLQMNSLKPVDTAVYYCAARYLGKKFYYWGQGTQVTVSS” the “polyreactivity (PSR sort gate)” value was “high polyreactivity”.
In the case of “QVQLVESGGGLVQAGGSLRLSCAASGRIYAYYPMGWYRQAPGKERELVAAISRGGGSTSYADSVKGRFTISRDNAKNTVYLQMNSLKPEDTAVYYCAADTRSYLVFTRYFRAYRRYDYWGQGTQVTVSS”, the “polyreactivity (PSR sort gate)” value is reported as “low polyreactivity”.
With “QVQLVESGGGLVQAGGSLRLSCAASGRIYGGNAKGWYRQAPGKEREFVAAITWRGGTTYYADSVKGRFTISRDNAKNTVYLQMNSLKPEDTAVYYCNALRYTRNTGYDYWGQGTQVTVSS” the “polyreactivity (PSR sort gate)” value was “high polyreactivity”.
In the case of “QVQLVESGGGLVQAGGSLRLSCAASGRIYGYTMGWYRQAPGKERELVAAITRNGGSTYYADSVKGRFTISRDNSKNSVYLQMNSLKPEDTAVYYCAARNAFGTYYYWGQGTQVTVSS”, the “polyreactivity (PSR sort gate)” value is reported as “high polyreactivity”.
For “QVQLVESGGGLVQAGGSLRLSCAASGRIYKYYAMGWYRQAPGKETELVAAISISGTNTYYADSVKGRFTISRDNAKNTVYLQMNSLKPEDTAVFYCAARQYTRGYEREYWGQGTQVTVSS”, the “polyreactivity (PSR sort gate)” value was “high polyreactivity”.
For “QVQLVESGGGLVQAGGSLRLSCAASGRIYVPNAMGWYRQAPGKERELVAAITSDGRTNDADSVKGRFTISRDNAKNTVYVQMNSLKPEDTAVYYSNAPVVTFGGYQDDVEYGYWGQGTQVTVSS”, the “polyreactivity (PSR sort gate)” value was “low polyreactivity”.
With “QVQLVESGGGLVQAGGSLRLSCAASGRIYYAYTMGWYIQAPGKERELVAAISGSGSTYYADSVKGRFSISRDNAKNTVYLQMNSLKPEDTAVYYCAADVTGGRKYDYWGQGTQVTVSS” the “polyreactivity (PSR sort gate)” value was “low polyreactivity”.
In the case of “QVQLVESGGGLVQAGGSLRLSCAASGRIYYRNAMGWYRQAPGKERELVAAISWRGGTTYYADSVKGRFTISRDNAKNSVYLQMNSLKPEYTAVYYCAADRRKAQAKPVHYSWGPQRYGYGYWGQGTQVTVSS”, the “polyreactivity (PSR sort gate)” value is reported as “high polyreactivity”.
In the case of “QVQLVESGGGLVQAGGSLRLSCAASGRIYYSNDMRWYRQAPGKERELVAAISRRDGSTYYADSVKGRFTISRDNAKNTVYLQMNSLKPEDTAVYYCRYYSYRYGYWGQGTQVTVSS”, the “polyreactivity (PSR sort gate)” value is reported as “high polyreactivity”.
For “QVQLVESGGGLVQAGGSLRLSCAASGRKFNGYDMGWYRQAPGKERELVAPINNSGGTDNTYYADSVKGRFTISRDNAKNTVYLQMNSLKPEDTAVYYCNAGPVWDQWWLYYYWGQGTQVTVSS”, the “polyreactivity (PSR sort gate)” value was “high polyreactivity”.
With “QVQLVESGGGLVQAGGSLRLSCAASGRLFIIYAMGWYRQAPGKERELVAAINRGATTNYADSVKGRFTISRDNAKYTVYLQMNSLKPEDTAVYYCAARGVAKLRRVGYWGQGTQVTVSS” the “polyreactivity (PSR sort gate)” value was “high polyreactivity”.
With “QVQLVESGGGLVQAGGSLRLSCAASGRLFTGNAMGWYRQAPGKERELVADINRTGGSPYYADSVKGRFTISRDNAKNTVYVQLNSLKPVDTAVYDCAAYVPWGWRYGYNYWGQGTQVTVSS” the “polyreactivity (PSR sort gate)” value was “high polyreactivity”.
In the case of “QVQLVESGGGLVQAGGSLRLSCAASGRLFVYNAMGWYRQAPGKEREFVATITSSGGRTYYADSVKGRFTISRDNAKNTVYLQMNSLKPEDSAVYYCAARPQNNGRNPVYRYNYWGQGTQVTVSS”, the “polyreactivity (PSR sort gate)” value is reported as “high polyreactivity”.
For “QVQLVESGGGLVQAGGSLRLSCAASGRLFVYNAMGWYRQAPGKERELVASISWSGDSTYADSVKGRFTISRDNAKNTVYIQMNSLKPEDTAVYYCAAYSQADYQNMDYWGQGTQVTVSS”, the “polyreactivity (PSR sort gate)” value was “low polyreactivity”.
With “QVQLVESGGGLVQAGGSLRLSCAASGRLFYQYAMGWSRQAPGKERELVAAISRSGGSTSYADSVKGRFTISRDNAKNTVYLQMNSLKPEDTAVYYCNARRWWDFQGYDYWGQGTQVTVSS” the “polyreactivity (PSR sort gate)” value was “high polyreactivity”.
For “QVQLVESGGGLVQAGGSLRLSCAASGRLMGWYRQAPGKERELVAAIRVSSGSTYYADSVKGRFTISRDNAKNTVYLQMNSLKPEDTAVYYCAKYVYLGYVRQVPYFRYDYWGQGTQVTVSS”, the “polyreactivity (PSR sort gate)” value was “high polyreactivity”.
In the case of “QVQLVESGGGLVQAGGSLRLSCAASGRLSVFYTMGWYRQAPGKERELVAVSRTSGGRTNYADSVKGRFTISRDNAKNTVYIEMNCLKPEDSGDYYGNAEFTYRWGYWQVYLLDYWGQGTQVTVSS”, the “polyreactivity (PSR sort gate)” value is reported as “low polyreactivity”.
In the case of “QVQLVESGGGLVQAGGSLRLSCAASGRMFFRYAMGCYRQAPGKEREFVATITWSGGRTHYADSVKGRFTISRDNAKNTVYLQMNSLKPEDTAVYYCAASYHRYAFDYWGQGTQVTVSS”, the “polyreactivity (PSR sort gate)” value is reported as “high polyreactivity”.
In the case of “QVQLVESGGGLVQAGGSLRLSCAASGRMFKYSDMGWYRQAPGKERALVAGISISGSTSYADSVKGRFTISRDNAKNTVYLQMNSLKPEDTAVYYCAADSRGGYPSLYEYDYWGQGTQETVSS”, the “polyreactivity (PSR sort gate)” value is reported as “low polyreactivity”.
For “QVQLVESGGGLVQAGGSLRLSCAASGRMFTYYAMGGYRQAPGKERELVAAINRGVVTTYYADSVKGRFTISRDHAKNTVDLQMNSLKPEDTAVYYCAADWFAANYYVNPVSALDYWGQGTQVTVSS”, the “polyreactivity (PSR sort gate)” value was “low polyreactivity”.
For “QVQLVESGGGLVQAGGSLRLSCAASGRMGWYRQAPGKERELVAGITSSGRTYYADSVKGRFTISRDNAKNTVYLQMNSLKPEDTAVYYCATYGYWGQGTQVTVSS”, the “polyreactivity (PSR sort gate)” value was “high polyreactivity”.
In the case of “QVQLVESGGGLVQAGGSLRLSCAASGRNFALNAMGWYRQAPGKERELLATIRWRGGSTYYADSVKGRFTISRDNAKKTVYLQMNSLKPEDTAVYYCATGPRPYPYDYCGQGTQVTVSS”, the “polyreactivity (PSR sort gate)” value is reported as “high polyreactivity”.
With “QVQLVESGGGLVQAGGSLRLSCAASGRNFCNYAMGWYIQAPGKERELVAVIRFSDGSTYYADSVKGRFTISRDNAKNTVYLQMNSLKPEDTAVYYCAAKGPRRWGSGFDYWGQGTQVTVSS” the “polyreactivity (PSR sort gate)” value was “low polyreactivity”.
With “QVQLVESGGGLVQAGGSLRLSCAASGRNFDPYAMGWYRQAPGKERELVASISRGGSTYADSVKGRFTISRDNAKNTVYLQMNRLKPEVTAVYYCNTSLYTEGDAMDYWGQGTQVTVSS” the “polyreactivity (PSR sort gate)” value was “low polyreactivity”.
For “QVQLVESGGGLVQAGGSLRLSCAASGRNFGVYAMGWYRQAPGKERELVARIRGSGASTYYADSVKGRFTISRDNAKNTVYLQMNSLKPEDTAVYYCAAVTVAGYDYWGQGTQVTVSS”, the “polyreactivity (PSR sort gate)” value was “high polyreactivity”.
With “QVQLVESGGGLVQAGGSLRLSCAASGRNFILNAMGWYRQAPGKERELVAAISWSGGSTYYADSVKGRFTISRDNAKNTVYLQMNSLKPEDTAVYYCAAETYAYLFHTYDYWGQGTQVTVSS” the “polyreactivity (PSR sort gate)” value was “low polyreactivity”.
